From the supplement of paper PMC9233669
Variants at the floor of the assay were thinned out.

Legend:
biotinyl-Ile-oxazolone = assay: self-aminoacylation, catalytic enhancement (BIO) (fold over background); higher = more active; k-Seq, kA / k0A0; sequences stand for … in GGGAAUGGAUCCACAUCUACGAAUUC…UUCACUGCAGACUUGACGAAGCUG
In short: (§1)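 Mutagenized RNA pools with a 21-nt variable region (0.43 μM) reacted with each biotinyl-aminoacyl-oxazolone at 2–1250 μM. Reactions ran in 50 μL HEPES/NaCl/KCl/MgCl2/CaCl2 buffer with 5% acetonitrile, pH 6.9–7.0, for 90 minutes at room temperature. Streptavidin-captured RNA was quantified by triplicate qPCR and Illumina sequencing, and per-sequence fraction reacted was fit to a pseudo-first-order model with 1000 bootstraps. Catalytic enhancement is median kA divided by the uncatalyzed rate, the low-activity peak of a bimodal Gaussian fit.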

biotinyl-Met-oxazolone = assay: self-aminoacylation, catalytic enhancement (BMO) (fold over background); higher = more active; k-Seq, kA / k0A0; sequences stand for … in GGGAAUGGAUCCACAUCUACGAAUUC…UUCACUGCAGACUUGACGAAGCUG
In short: as §1

biotinyl-Phe-oxazolone = assay: self-aminoacylation, catalytic enhancement (BFO) (fold over background); higher = more active; k-Seq, kA / k0A0; sequences stand for … in GGGAAUGGAUCCACAUCUACGAAUUC…UUCACUGCAGACUUGACGAAGCUG
In short: as §1

biotinyl-Val-oxazolone = assay: self-aminoacylation, catalytic enhancement (BVO) (fold over background); higher = more active; k-Seq, kA / k0A0; sequences stand for … in GGGAAUGGAUCCACAUCUACGAAUUC…UUCACUGCAGACUUGACGAAGCUG
In short: as §1

biotinyl-Trp-oxazolone = assay: self-aminoacylation, catalytic enhancement (BWO) (fold over background); higher = more active; k-Seq, kA / k0A0; sequences stand for … in GGGAAUGGAUCCACAUCUACGAAUUC…UUCACUGCAGACUUGACGAAGCUG
In short: as §1

biotinyl-Leu-oxazolone = assay: self-aminoacylation, catalytic enhancement (BLO) (fold over background); higher = more active; k-Seq, kA / k0A0; sequences stand for … in GGGAAUGGAUCCACAUCUACGAAUUC…UUCACUGCAGACUUGACGAAGCUG
In short: as §1

| Sequence | self-aminoacylation (biotinyl-Ile-oxazolone) | self-aminoacylation (biotinyl-Met-oxazolone) | self-aminoacylation (biotinyl-Phe-oxazolone) | self-aminoacylation (biotinyl-Val-oxazolone) | self-aminoacylation (biotinyl-Trp-oxazolone) | self-aminoacylation (biotinyl-Leu-oxazolone) |
| --- | --- | --- | --- | --- | --- | --- |
| CUACUUCAAACAAUCGGUAAG [Fam1A.1 aminoacylation ribozyme variant] | 0.516 | 0.454 | 1.29 | 0.662 | 0.835 | 0.448 |
| CUACUUCAAACAAUCGGUAUG [Fam1A.1 aminoacylation ribozyme variant] | 0.788 | 0.789 | 21.5 | 0.799 | 10.1 | 0.995 |
| CUACUUCAAACAAUCGGUCCG [Fam1A.1 aminoacylation ribozyme variant] | 0.711 | 0.745 | 8.83 | 0.749 | 5.32 | 0.862 |
| CUACUUCAAACAAUCGGUGGG [Fam1A.1 aminoacylation ribozyme variant] | 0.934 | 0.811 | 1.14 | 0.816 | 0.856 | 0.878 |
| CUACUUCAAACAAUCGGUUGG [Fam1A.1 aminoacylation ribozyme variant] | 0.843 | 0.619 | 3.55 | 0.812 | 1.82 | 0.788 |
| CUACUUCAAACAAUCGGUUUU [Fam1A.1 aminoacylation ribozyme variant] | 1.31 | 0.931 | 2.35 | 1.26 | 1.44 | 1.1 |
| CUACUUCAAACAAUCGUUCGG [Fam1A.1 aminoacylation ribozyme variant] | 0.787 | 0.641 | 0.675 | 0.623 | 0.473 | 0.637 |
| CUACUUCAAACAAUCGUUCUU [Fam1A.1 aminoacylation ribozyme variant] | 0.712 | 0.716 | 0.947 | 0.729 | 0.574 | 0.64 |
| CUACUUCAAACAAUCGUUGUG [Fam1A.1 aminoacylation ribozyme variant] | 1.17 | 1.68 | 1.69 | 1.15 | 1.38 | 1.7 |
| CUACUUCAAACAAUCUGGCUG [Fam1A.1 aminoacylation ribozyme variant] | 0.963 | 0.844 | 0.69 | 0.963 | 0.664 | 1.02 |
| CUACUUCAAACAAUGCGUCUG [Fam1A.1 aminoacylation ribozyme variant] | 1.17 | 1.09 | 0.887 | 0.887 | 0.738 | 0.975 |
| CUACUUCAAACAAUGGGCCUG [Fam1A.1 aminoacylation ribozyme variant] | 1.4 | 1.25 | 1.67 | 1.16 | 0.896 | 1.19 |
| CUACUUCAAACAAUGUGUCUG [Fam1A.1 aminoacylation ribozyme variant] | 0.838 | 0.662 | 0.725 | 0.848 | 0.583 | 0.716 |
| CUACUUCAAACAAUUGAUCUG [Fam1A.1 aminoacylation ribozyme variant] | 0.832 | 0.765 | 0.576 | 0.688 | 0.543 | 0.642 |
| CUACUUCAAACAAUUGGUCGG [Fam1A.1 aminoacylation ribozyme variant] | 1.25 | 0.91 | 0.858 | 1.11 | 0.932 | 1.18 |
| CUACUUCAAACACUCAGUCUG [Fam1A.1 aminoacylation ribozyme variant] | 0.798 | 0.727 | 1.02 | 0.732 | 0.601 | 0.685 |
| CUACUUCAAACACUCGGCCUG [Fam1A.1 aminoacylation ribozyme variant] | 1.96 | 1.59 | 1.38 | 2.38 | 2.01 | 2.05 |
| CUACUUCAAACACUCGGUCUC [Fam1A.1 aminoacylation ribozyme variant] | 0.998 | 0.794 | 0.739 | 0.808 | 0.9 | 0.953 |
| CUACUUCAAACAUUCGGUCUA [Fam1A.1 aminoacylation ribozyme variant] | 1.03 | 0.882 | 0.783 | 1.02 | 0.89 | 0.766 |
| CUACUUCAAACAUUCGGUUUG [Fam1A.1 aminoacylation ribozyme variant] | 1.17 | 1.05 | 0.613 | 1.2 | 1.43 | 0.962 |
| CUACUUCAAACAUUCUGUCUG [Fam1A.1 aminoacylation ribozyme variant] | 0.822 | 0.7 | 0.851 | 0.79 | 0.543 | 0.727 |
| CUACUUCAAACCACCGGUCUG [Fam1A.1 aminoacylation ribozyme variant] | 1.03 | 1.09 | 0.963 | 0.954 | 1.25 | 0.795 |
| CUACUUCAAACCAUCCGUCUG [Fam1A.1 aminoacylation ribozyme variant] | 0.891 | 0.891 | 0.573 | 1.14 | 0.802 | 0.721 |
| CUACUUCAAACCAUCGAUCUG [Fam1A.1 aminoacylation ribozyme variant] | 0.685 | 0.614 | 0.733 | 0.777 | 0.581 | 0.529 |
| CUACUUCAAACCAUCGGUCUC [Fam1A.1 aminoacylation ribozyme variant] | 0.708 | 0.555 | 0.936 | 0.72 | 0.731 | 0.496 |
